In patent publication US20260055162A1:

Assays:
Experiment in all cases: cell-based or functional assay
[1] = target: AA-TGFB-087 (TGFB-087), TGF-BR2 ECD-TLR4 TM-TLR4 ICD
[2] = target: AA-TGFB-019 (TGFB-019), TGF-BR2 ECD-CD28 TM-CD28 ICD
[3] = target: AA-TGFB-072 (TGFB-072), TGF-BR2 ECD-SLAMF6 TM-SLAMF6 ICD
[4] = target: AA-TGFB-076 (TGFB-076), TGF-BR2 ECD-EPOR TM-EPOR ICD
[5] = target: AA-TGFB-064 (TGFB-064), TGF-BR2 ECD-CD28 Long TM-TIRAP ICD
[6] = target: AA-TGFB-058 (TGFB-058), TGF-BR2 ECD-DAP12 TM-DAP12 ICD
[7] = target: AA-TGFB-074 (TGFB-074), TGF-BR2 ECD-LFA2 TM-LFA2 ICD
[8] = target: AA-TGFB-096 (TGFB-096), TGF-BR2 ECD-CD28 Long TM-Fgr ICD
[9] = target: AA-TGFB-083 (TGFB-083), TGF-BR2 ECD-NKp44 TM-NKp44 ICD
[10] = target: AA-TGFB-070 (TGFB-070), TGF-BR2 ECD-SLAMF1 TM-SLAMF1 ICD
[11] = target: AA-TGFB-081 (TGFB-081), TGF-BR2 ECD-ICOS TM-ICOS ICD
[12] = target: AA-TGFB-052 (TGFB-052), TGF-BR2 ECD-CD28 TM-41BB ICD
[13] = target: AA-TGFB-073 (TGFB-073), TGF-BR2 ECD-SLAMF7 TM-SLAMF7 ICD
[14] = target: AA-TGFB-062 (TGFB-062), TGF-BR2 ECD-CD28 Long TM-TRAF6 ICD
[15] = target: AA-TGFB-080 (TGFB-080), TGF-BR2 ECD-DNAM1 TM-DNAM1 ICD
[16] = target: AA-TGFB-065 (TGFB-065), TGF-BR2 ECD-CD28 Long TM-BLNK ICD
[17] = target: AA-TGFB-078 (TGFB-078), TGF-BR2 ECD-CSF1R TM-CSF1R ICD
[18] = target: AA-TGFB-051 (TGFB-051), TGF-BR2 ECD-CD28 TM-DAP10v2 ICD
[19] = target: AA-TGFB-066 (TGFB-066), TGF-BR2 ECD-CD28 Long TM-GRB2 ICD
[20] = target: AA-TGFB-075 (TGFB-075), TGF-BR2 ECD-SLAMF3 TM-SLAMF3 ICD
[21] = target: AA-TGFB-021 (TGFB-021), TGF-BR2 ECD-CD28 TM-CD3z ICD
[22] = target: AA-TGFB-094 (TGFB-094), TGF-BR2 ECD-CD28 Long TM-Lyn ICD
[23] = target: AA-TGFB-084 (TGFB-084), TGF-BR2 ECD-NKp30 TM-NKp30 ICD
Chain of AA-TGFB-084 (TGFB-084), TGF-BR2 ECD-NKp30 TM-NKp30 ICD (chain, as listed by the source limits assumed, form in doubt): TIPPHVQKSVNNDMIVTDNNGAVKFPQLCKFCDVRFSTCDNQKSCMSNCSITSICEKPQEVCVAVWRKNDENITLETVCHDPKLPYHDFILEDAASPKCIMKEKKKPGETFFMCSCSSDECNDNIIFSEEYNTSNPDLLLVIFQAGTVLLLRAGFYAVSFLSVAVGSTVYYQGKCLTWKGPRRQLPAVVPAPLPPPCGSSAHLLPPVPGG

Chain of AA-TGFB-073 (TGFB-073), TGF-BR2 ECD-SLAMF7 TM-SLAMF7 ICD (chain, as listed by the source limits assumed, form in doubt): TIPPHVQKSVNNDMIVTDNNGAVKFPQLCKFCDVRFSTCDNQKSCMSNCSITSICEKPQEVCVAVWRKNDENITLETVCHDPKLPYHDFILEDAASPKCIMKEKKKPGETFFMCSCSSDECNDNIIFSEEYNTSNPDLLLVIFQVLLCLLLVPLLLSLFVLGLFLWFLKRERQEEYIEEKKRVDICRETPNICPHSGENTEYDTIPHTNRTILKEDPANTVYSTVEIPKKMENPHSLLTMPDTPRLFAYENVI
Chain of AA-TGFB-074 (TGFB-074), TGF-BR2 ECD-LFA2 TM-LFA2 ICD (chain, as listed by the source limits assumed, form in doubt): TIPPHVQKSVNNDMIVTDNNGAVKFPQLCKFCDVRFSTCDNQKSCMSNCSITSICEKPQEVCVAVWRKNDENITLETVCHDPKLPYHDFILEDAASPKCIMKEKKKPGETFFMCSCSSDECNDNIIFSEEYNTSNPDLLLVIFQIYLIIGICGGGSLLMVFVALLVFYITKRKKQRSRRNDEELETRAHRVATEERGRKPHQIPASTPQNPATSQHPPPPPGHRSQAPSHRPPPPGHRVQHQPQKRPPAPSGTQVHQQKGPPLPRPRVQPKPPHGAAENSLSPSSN
Chain of AA-TGFB-080 (TGFB-080), TGF-BR2 ECD-DNAM1 TM-DNAM1 ICD (chain, as listed by the source limits assumed, form in doubt): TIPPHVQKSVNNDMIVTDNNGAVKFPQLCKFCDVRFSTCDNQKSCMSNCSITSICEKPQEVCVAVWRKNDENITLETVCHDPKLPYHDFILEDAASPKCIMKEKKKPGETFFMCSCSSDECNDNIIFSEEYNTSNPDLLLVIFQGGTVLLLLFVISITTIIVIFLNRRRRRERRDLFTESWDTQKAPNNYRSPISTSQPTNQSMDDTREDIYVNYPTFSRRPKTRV
Chain of AA-TGFB-078 (TGFB-078), TGF-BR2 ECD-CSF1R TM-CSF1R ICD (chain, as listed by the source limits assumed, form in doubt): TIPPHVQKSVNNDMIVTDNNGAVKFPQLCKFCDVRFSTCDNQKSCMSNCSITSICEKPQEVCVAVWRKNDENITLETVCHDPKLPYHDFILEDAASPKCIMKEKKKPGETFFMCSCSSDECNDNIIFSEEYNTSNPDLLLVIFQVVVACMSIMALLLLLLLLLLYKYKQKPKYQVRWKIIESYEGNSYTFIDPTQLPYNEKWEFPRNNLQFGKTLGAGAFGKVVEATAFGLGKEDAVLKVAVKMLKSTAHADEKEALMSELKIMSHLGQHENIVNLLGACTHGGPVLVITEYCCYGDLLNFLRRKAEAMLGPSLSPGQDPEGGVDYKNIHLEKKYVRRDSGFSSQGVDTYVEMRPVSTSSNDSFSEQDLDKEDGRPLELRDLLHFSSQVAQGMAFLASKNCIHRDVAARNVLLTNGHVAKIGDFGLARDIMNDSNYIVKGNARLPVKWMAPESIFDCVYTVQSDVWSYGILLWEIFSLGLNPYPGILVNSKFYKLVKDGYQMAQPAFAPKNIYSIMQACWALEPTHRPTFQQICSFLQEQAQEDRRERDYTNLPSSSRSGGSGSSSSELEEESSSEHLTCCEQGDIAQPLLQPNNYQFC
Chain of AA-TGFB-052 (TGFB-052), TGF-BR2 ECD-CD28 TM-41BB ICD (chain, as listed by the source limits assumed, form in doubt): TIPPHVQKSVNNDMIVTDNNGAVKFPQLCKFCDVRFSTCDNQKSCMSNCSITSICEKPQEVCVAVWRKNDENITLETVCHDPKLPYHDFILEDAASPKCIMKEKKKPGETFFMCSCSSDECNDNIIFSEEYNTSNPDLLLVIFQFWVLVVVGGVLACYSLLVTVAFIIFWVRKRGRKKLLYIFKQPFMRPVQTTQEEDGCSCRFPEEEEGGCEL
Chain of AA-TGFB-072 (TGFB-072), TGF-BR2 ECD-SLAMF6 TM-SLAMF6 ICD (chain, as listed by the source limits assumed, form in doubt): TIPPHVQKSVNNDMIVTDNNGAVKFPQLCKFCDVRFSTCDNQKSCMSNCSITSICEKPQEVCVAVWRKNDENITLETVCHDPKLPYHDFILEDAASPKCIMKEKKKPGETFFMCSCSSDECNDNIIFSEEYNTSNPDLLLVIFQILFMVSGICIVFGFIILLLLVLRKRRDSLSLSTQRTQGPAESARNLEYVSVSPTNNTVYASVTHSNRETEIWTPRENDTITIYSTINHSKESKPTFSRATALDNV
Chain of AA-TGFB-087 (TGFB-087), TGF-BR2 ECD-TLR4 TM-TLR4 ICD (chain, as listed by the source limits assumed, form in doubt): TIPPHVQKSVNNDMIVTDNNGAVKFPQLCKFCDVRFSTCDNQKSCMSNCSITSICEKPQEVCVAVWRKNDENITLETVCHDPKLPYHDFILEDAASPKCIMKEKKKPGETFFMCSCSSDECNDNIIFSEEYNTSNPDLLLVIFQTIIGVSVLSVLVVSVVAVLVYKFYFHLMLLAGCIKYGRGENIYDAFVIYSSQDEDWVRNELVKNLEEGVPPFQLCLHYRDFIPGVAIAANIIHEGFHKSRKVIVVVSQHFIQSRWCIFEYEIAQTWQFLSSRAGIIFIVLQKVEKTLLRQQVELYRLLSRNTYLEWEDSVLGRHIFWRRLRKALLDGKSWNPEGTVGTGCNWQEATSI
Chain of AA-TGFB-062 (TGFB-062), TGF-BR2 ECD-CD28 Long TM-TRAF6 ICD (chain, as listed by the source limits assumed, form in doubt): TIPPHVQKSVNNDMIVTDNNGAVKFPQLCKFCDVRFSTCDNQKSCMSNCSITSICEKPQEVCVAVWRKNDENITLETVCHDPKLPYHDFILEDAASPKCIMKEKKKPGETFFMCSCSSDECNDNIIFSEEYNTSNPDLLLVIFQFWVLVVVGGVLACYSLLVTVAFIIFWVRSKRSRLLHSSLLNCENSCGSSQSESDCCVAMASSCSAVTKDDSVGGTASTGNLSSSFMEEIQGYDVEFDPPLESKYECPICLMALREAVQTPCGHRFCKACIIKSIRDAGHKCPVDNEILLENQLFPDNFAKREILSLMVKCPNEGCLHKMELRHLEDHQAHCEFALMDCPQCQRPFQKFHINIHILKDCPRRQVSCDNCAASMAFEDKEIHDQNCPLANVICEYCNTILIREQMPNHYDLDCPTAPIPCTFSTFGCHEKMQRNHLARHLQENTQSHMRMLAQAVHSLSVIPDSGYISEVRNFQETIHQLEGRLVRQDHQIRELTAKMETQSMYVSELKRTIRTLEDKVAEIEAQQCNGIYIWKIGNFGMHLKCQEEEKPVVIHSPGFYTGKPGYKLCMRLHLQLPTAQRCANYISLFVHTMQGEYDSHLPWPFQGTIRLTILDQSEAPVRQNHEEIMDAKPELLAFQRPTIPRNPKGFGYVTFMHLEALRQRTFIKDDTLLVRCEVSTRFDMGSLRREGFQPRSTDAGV
Chain of AA-TGFB-075 (TGFB-075), TGF-BR2 ECD-SLAMF3 TM-SLAMF3 ICD (chain, as listed by the source limits assumed, form in doubt): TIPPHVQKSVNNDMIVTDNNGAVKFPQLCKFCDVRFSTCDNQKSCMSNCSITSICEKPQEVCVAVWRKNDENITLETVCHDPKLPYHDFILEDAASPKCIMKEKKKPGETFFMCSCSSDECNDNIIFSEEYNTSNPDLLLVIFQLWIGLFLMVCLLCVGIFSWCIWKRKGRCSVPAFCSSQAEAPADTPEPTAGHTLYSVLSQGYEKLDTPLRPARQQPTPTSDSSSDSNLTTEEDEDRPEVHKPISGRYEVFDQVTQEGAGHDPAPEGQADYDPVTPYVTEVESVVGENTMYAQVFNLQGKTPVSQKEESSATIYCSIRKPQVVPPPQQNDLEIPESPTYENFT
Chain of recombinant TGF-B1 cytokine (P01137 279-390 limits assumed): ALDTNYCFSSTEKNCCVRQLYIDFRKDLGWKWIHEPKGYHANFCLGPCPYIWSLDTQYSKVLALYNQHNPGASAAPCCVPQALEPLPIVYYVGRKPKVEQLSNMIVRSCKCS
Chain of AA-TGFB-070 (TGFB-070), TGF-BR2 ECD-SLAMF1 TM-SLAMF1 ICD (chain, as listed by the source limits assumed, form in doubt): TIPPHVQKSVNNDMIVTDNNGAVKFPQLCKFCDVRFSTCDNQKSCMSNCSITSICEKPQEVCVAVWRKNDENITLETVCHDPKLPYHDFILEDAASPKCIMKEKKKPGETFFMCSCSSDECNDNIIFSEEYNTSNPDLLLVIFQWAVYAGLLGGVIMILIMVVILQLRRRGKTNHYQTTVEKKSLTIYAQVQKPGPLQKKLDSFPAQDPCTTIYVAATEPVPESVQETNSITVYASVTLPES
Chain of AA-TGFB-021 (TGFB-021), TGF-BR2 ECD-CD28 TM-CD3z ICD (chain, as listed by the source limits assumed, form in doubt): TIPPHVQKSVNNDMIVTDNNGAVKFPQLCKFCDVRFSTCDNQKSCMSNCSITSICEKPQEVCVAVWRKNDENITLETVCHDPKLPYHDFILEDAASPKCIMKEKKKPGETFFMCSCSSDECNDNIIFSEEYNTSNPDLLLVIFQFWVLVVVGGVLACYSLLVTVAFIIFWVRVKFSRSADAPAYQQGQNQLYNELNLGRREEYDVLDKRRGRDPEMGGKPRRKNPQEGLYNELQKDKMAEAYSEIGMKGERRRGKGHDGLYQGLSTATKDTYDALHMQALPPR
Chain of AA-TGFB-081 (TGFB-081), TGF-BR2 ECD-ICOS TM-ICOS ICD (chain, as listed by the source limits assumed, form in doubt): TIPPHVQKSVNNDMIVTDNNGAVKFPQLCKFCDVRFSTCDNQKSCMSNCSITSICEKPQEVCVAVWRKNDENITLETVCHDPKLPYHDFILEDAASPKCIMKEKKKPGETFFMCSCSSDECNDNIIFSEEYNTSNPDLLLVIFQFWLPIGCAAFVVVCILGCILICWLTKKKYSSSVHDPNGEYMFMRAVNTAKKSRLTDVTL
Chain of AA-TGFB-058 (TGFB-058), TGF-BR2 ECD-DAP12 TM-DAP12 ICD (chain, as listed by the source limits assumed, form in doubt): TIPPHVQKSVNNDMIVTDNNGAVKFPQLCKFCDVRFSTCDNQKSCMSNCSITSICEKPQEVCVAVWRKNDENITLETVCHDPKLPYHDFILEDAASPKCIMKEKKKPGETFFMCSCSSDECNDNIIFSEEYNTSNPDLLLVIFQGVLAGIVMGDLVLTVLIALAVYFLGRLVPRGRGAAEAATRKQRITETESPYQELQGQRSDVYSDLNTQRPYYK
Chain of AA-TGFB-083 (TGFB-083), TGF-BR2 ECD-NKp44 TM-NKp44 ICD (chain, as listed by the source limits assumed, form in doubt): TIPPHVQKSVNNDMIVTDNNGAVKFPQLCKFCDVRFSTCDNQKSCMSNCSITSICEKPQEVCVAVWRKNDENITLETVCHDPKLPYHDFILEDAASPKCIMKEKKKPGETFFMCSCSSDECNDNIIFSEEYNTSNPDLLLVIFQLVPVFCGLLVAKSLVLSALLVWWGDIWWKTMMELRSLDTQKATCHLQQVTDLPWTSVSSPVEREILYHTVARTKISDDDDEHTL

Substance: recombinant TGF-B1 cytokine (from UniProt P01137 279-390) (ligand)
- 5-Day Fold Expansion of NK cells, 10 ng/mL TGF-B1 [1]: 2.51 fold
- Average % Killing (SKOV-3), 10 ng/mL TGF-B1 [1]: 11.9%
- Average IFNg Secretion, 10 ng/mL TGF-B1 [1]: 6060 pg/mL
- Average IP-10 Secretion, 10 ng/mL TGF-B1 [1]: 1260
- 5-Day Fold Expansion of NK cells, 10 ng/mL TGF-B1 [2]: 1.99 fold
- Average % Killing (SKOV-3), 10 ng/mL TGF-B1 [2]: 21.1%
- Average IFNg Secretion, 10 ng/mL TGF-B1 [2]: 6700 pg/mL
- Average IP-10 Secretion, 10 ng/mL TGF-B1 [2]: 1170
- 5-Day Fold Expansion of NK cells, 10 ng/mL TGF-B1 [3]: 3.89 fold
- Average % Killing (SKOV-3), 10 ng/mL TGF-B1 [3]: 15%
- Average IFNg Secretion, 10 ng/mL TGF-B1 [3]: 8700 pg/mL
- Average IP-10 Secretion, 10 ng/mL TGF-B1 [3]: 1880
- 5-Day Fold Expansion of NK cells, 10 ng/mL TGF-B1 [4]: 2.94 fold
- Average % Killing (SKOV-3), 10 ng/mL TGF-B1 [4]: 14.3%
- Average IFNg Secretion, 10 ng/mL TGF-B1 [4]: 6650 pg/mL
- Average IP-10 Secretion, 10 ng/mL TGF-B1 [4]: 1340
- 5-Day Fold Expansion of NK cells, 10 ng/mL TGF-B1 [5]: 1.04 fold
- Average % Killing (SKOV-3), 10 ng/mL TGF-B1 [5]: 9.89%
- Average IFNg Secretion, 10 ng/mL TGF-B1 [5]: 4790 pg/mL
- Average IP-10 Secretion, 10 ng/mL TGF-B1 [5]: 1540
- 5-Day Fold Expansion of NK cells, 10 ng/mL TGF-B1 [6]: 1.76 fold
- Average % Killing (SKOV-3), 10 ng/mL TGF-B1 [6]: 8.35%
- Average IFNg Secretion, 10 ng/mL TGF-B1 [6]: 2360 pg/mL
- Average IP-10 Secretion, 10 ng/mL TGF-B1 [6]: 837
- 5-Day Fold Expansion of NK cells, 10 ng/mL TGF-B1 [7]: 2.4 fold
- Average % Killing (SKOV-3), 10 ng/mL TGF-B1 [7]: 11.2%
- Average IFNg Secretion, 10 ng/mL TGF-B1 [7]: 5730 pg/mL
- Average IP-10 Secretion, 10 ng/mL TGF-B1 [7]: 1170
- 5-Day Fold Expansion of NK cells, 10 ng/mL TGF-B1 [8]: 1 fold
- Average % Killing (SKOV-3), 10 ng/mL TGF-B1 [8]: 16%
- Average IFNg Secretion, 10 ng/mL TGF-B1 [8]: > 9000 pg/mL
- Average IP-10 Secretion, 10 ng/mL TGF-B1 [8]: 2330
- 5-Day Fold Expansion of NK cells, 10 ng/mL TGF-B1 [9]: 2.08 fold
- Average % Killing (SKOV-3), 10 ng/mL TGF-B1 [9]: 14.1%
- Average IFNg Secretion, 10 ng/mL TGF-B1 [9]: 3960 pg/mL
- Average IP-10 Secretion, 10 ng/mL TGF-B1 [9]: 968
- 5-Day Fold Expansion of NK cells, 10 ng/mL TGF-B1 [10]: 4.03 fold
- Average % Killing (SKOV-3), 10 ng/mL TGF-B1 [10]: 13.2%
- Average IFNg Secretion, 10 ng/mL TGF-B1 [10]: 7690 pg/mL
- Average IP-10 Secretion, 10 ng/mL TGF-B1 [10]: 1630
- 5-Day Fold Expansion of NK cells, 10 ng/mL TGF-B1 [11]: 2.31 fold
- Average % Killing (SKOV-3), 10 ng/mL TGF-B1 [11]: 18.8%
- Average IFNg Secretion, 10 ng/mL TGF-B1 [11]: > 9000 pg/mL
- Average IP-10 Secretion, 10 ng/mL TGF-B1 [11]: 2180
- 5-Day Fold Expansion of NK cells, 10 ng/mL TGF-B1 [12]: 1.57 fold
- Average % Killing (SKOV-3), 10 ng/mL TGF-B1 [12]: 12.8%
- Average IFNg Secretion, 10 ng/mL TGF-B1 [12]: 8770 pg/mL
- Average IP-10 Secretion, 10 ng/mL TGF-B1 [12]: 976
- 5-Day Fold Expansion of NK cells, 10 ng/mL TGF-B1 [13]: 3.08 fold
- Average % Killing (SKOV-3), 10 ng/mL TGF-B1 [13]: 13.1%
- Average IFNg Secretion, 10 ng/mL TGF-B1 [13]: 6910 pg/mL
- Average IP-10 Secretion, 10 ng/mL TGF-B1 [13]: 1420
- 5-Day Fold Expansion of NK cells, 10 ng/mL TGF-B1 [14]: 1.41 fold
- Average % Killing (SKOV-3), 10 ng/mL TGF-B1 [14]: 8.4%
- Average IFNg Secretion, 10 ng/mL TGF-B1 [14]: 3010 pg/mL
- Average IP-10 Secretion, 10 ng/mL TGF-B1 [14]: 1370
- 5-Day Fold Expansion of NK cells, 10 ng/mL TGF-B1 [15]: 2.11 fold
- Average % Killing (SKOV-3), 10 ng/mL TGF-B1 [15]: 10.8%
- Average IFNg Secretion, 10 ng/mL TGF-B1 [15]: 4380 pg/mL
- Average IP-10 Secretion, 10 ng/mL TGF-B1 [15]: 1230
- 5-Day Fold Expansion of NK cells, 10 ng/mL TGF-B1 [16]: 0.71 fold
- Average % Killing (SKOV-3), 10 ng/mL TGF-B1 [16]: 9.68%
- Average IFNg Secretion, 10 ng/mL TGF-B1 [16]: 3130 pg/mL
- Average IP-10 Secretion, 10 ng/mL TGF-B1 [16]: 1030
- 5-Day Fold Expansion of NK cells, 10 ng/mL TGF-B1 [17]: 2.14 fold
- Average % Killing (SKOV-3), 10 ng/mL TGF-B1 [17]: 15.2%
- Average IFNg Secretion, 10 ng/mL TGF-B1 [17]: 6320 pg/mL
- Average IP-10 Secretion, 10 ng/mL TGF-B1 [17]: 1000
- 5-Day Fold Expansion of NK cells, 10 ng/mL TGF-B1 [18]: 1.42 fold
- Average % Killing (SKOV-3), 10 ng/mL TGF-B1 [18]: 11.4%
- Average IFNg Secretion, 10 ng/mL TGF-B1 [18]: 4200 pg/mL
- Average IP-10 Secretion, 10 ng/mL TGF-B1 [18]: 671
- 5-Day Fold Expansion of NK cells, 10 ng/mL TGF-B1 [19]: 1.44 fold
- Average % Killing (SKOV-3), 10 ng/mL TGF-B1 [19]: 8.89%
- Average IFNg Secretion, 10 ng/mL TGF-B1 [19]: 3270 pg/mL
- Average IP-10 Secretion, 10 ng/mL TGF-B1 [19]: 1240
- 5-Day Fold Expansion of NK cells, 10 ng/mL TGF-B1 [20]: 3.86 fold
- Average % Killing (SKOV-3), 10 ng/mL TGF-B1 [20]: 9.64%
- Average IFNg Secretion, 10 ng/mL TGF-B1 [20]: 4420 pg/mL
- Average IP-10 Secretion, 10 ng/mL TGF-B1 [20]: 1040
- 5-Day Fold Expansion of NK cells, 10 ng/mL TGF-B1 [21]: 0.45 fold
- Average % Killing (SKOV-3), 10 ng/mL TGF-B1 [21]: 2.26%
- CD69, fold-change of MFI over no stimulation, High (0.05 ug/mL) [21]: 93 fold
- CD69, fold-change of MFI over no stimulation, Low (0.002 ug/mL) [21]: 21.5 fold
- CD69, fold-change of MFI over no stimulation, Med. (0.01 ug/mL) [21]: 62.2 fold
- GFP, fold-change of MFI over no stimulation, High (0.05 ug/mL) [21]: 10.1 fold
- GFP, fold-change of MFI over no stimulation, Low (0.002 ug/mL) [21]: 2.8 fold
- GFP, fold-change of MFI over no stimulation, Med. (0.01 ug/mL) [21]: 9.3 fold
- 5-Day Fold Expansion of NK cells, 10 ng/mL TGF-B1 [22]: 1.2 fold
- Average % Killing (SKOV-3), 10 ng/mL TGF-B1 [22]: 16.5%
- Average IFNg Secretion, 10 ng/mL TGF-B1 [22]: > 9000 pg/mL
- Average IP-10 Secretion, 10 ng/mL TGF-B1 [22]: 3210
- 5-Day Fold Expansion of NK cells, 10 ng/mL TGF-B1 [23]: 2.19 fold
- Average % Killing (SKOV-3), 10 ng/mL TGF-B1 [23]: 13.7%
- Average IFNg Secretion, 10 ng/mL TGF-B1 [23]: 4870 pg/mL
- Average IP-10 Secretion, 10 ng/mL TGF-B1 [23]: 1340
